{"source": "patent US20220175781A1", "about": "“CD40L COMPOSITIONS AND METHODS FOR TUNABLE REGULATION” (Obsidian Therapeutics, Inc., priority 2019, published 2022)", "molecules": {"B1": {"name": "OT-001966: ER regulated CD40L construct, longest linker (protein)", "chain": "MSLALSLTADQMVSALLDAEPPILYSEYDPTRPFSEASMMGLLTNLADRELVHMINWAKRVPGFVDLTLHDQVHLLECAWMEILMIGLVWRSMEHPGKLLFAPNLLLDRDQGKCVEGGVEIFDMLLATSSRFRMMNLQGEEFVCLKSIILLNSGVYTFLSSTLKSLEEKDHIHRVLDKITDTLIHLMAKAGLTLQQQHQRLAQLLLILSHIRHMSNKRMEHLYSMKCKNVVPLSDLLLEMLDAHRLGGSGGGSGGGSGMIETYNQTSPRSAATGLPISMKIFMYLLTVFLITQMIGSALFAVYLHRRLDKIEDERNLHEDFVFMKTIQRCNTGERSLSLLNCEEIKSQFEGFVKDIMLNKEETKKENSFEMQKGDQNPQIAAHVISEASSKTTSVLQWAEKGYYTMSNNLVTLENGKQLTVKRQGLYYIYAQVTFCSNREASSQAPFIASLCLKSPGRFERILLRAANTHSSAKPCGQQSIHLGGVFELQPGASVFVNVTDPSQVSHGTGFTSFGLLKL"}}, "key": {"T cells (CD4+ and CD8+)": {"tested_on": "T cells (CD4+ and CD8+)", "experiment": "Regulation of CD40L in T cells by different drug responsive domains", "assay_type": "cell-based"}, "HEK293T cells": {"tested_on": "HEK293T cells", "experiment": "Linker length, ER regulated CD40L surface expression, transfected HEK293T cells", "assay_type": "cell-based, human", "details": "1 μM Bazedoxifene 24 hours", "experimental": "To explore the effect of linker length in the DD mediated regulation of CD40L, constructs with varying linker lengths were generated. OT-001966, OT-001965, OT-001967, OT-001666 constructs were generated and are presented here in decreasing linker length order. HEK293T cells were transiently transfected with these constructs and treated with 1 μM Bazedoxifene for 24 hours. Median fluorescence intensity, an indicator of surface expression of CD40L, was analyzed by flow cytometry."}, "Jurkat cells": {"tested_on": "Jurkat cells", "experiment": "Linker length, ER regulated CD40L, % CD40L positive Jurkat cells", "assay_type": "cell-based", "experimental": "Jurkat cells were lentivirally transduced and 24 hours after transduction were treated with DMSO or 1 μM Bazedoxifene for another 24 hours and analyzed by flow cytometry for surface expression of CD40L. […] In Table 33, SR indicates stabilization ratio."}, "[1]": {"tested_on": "T cells (CD4 and CD8 positive)", "experiment": "Bazedoxifene dose response, CD40L MFI in CD4 and CD8 positive T cells (day 4, freeze/thaw, restimulation)", "assay_type": "cell-based", "experimental": "Dose response with Bazedoxifene in T cells were conducted for OT-001966, OT-001967, OT-001666. Expression of CD40L was measured at (a) day 4 after transduction, (b) after freezing and thawing the cells or (c) after freezing and thawing the cells followed by restimulation with CD3/CD28 beads. The CD40L MFI (median fluorescence intensity) within CD4 and CD8 positive subpopulations is shown in Table 34 and Table 35 respectively."}}}
{"molecule": "B1", "values": [{"measurement": "CD40L positive", "setting": "T cells (CD4+ and CD8+); All Cells, 1 uM Baz", "result": 58.1, "unit": "%"}, {"measurement": "MFI", "setting": "T cells (CD4+ and CD8+); All Cells, 1 uM Baz", "result": 490}, {"measurement": "CD40L positive", "setting": "T cells (CD4+ and CD8+); All Cells, DMSO", "result": 14, "unit": "%"}, {"measurement": "MFI", "setting": "T cells (CD4+ and CD8+); All Cells, DMSO", "result": 174}, {"measurement": "CD40L positive", "setting": "T cells (CD4+ and CD8+); CD4+, 1 uM Baz", "result": 62.8, "unit": "%"}, {"measurement": "MFI", "setting": "T cells (CD4+ and CD8+); CD4+, 1 uM Baz", "result": 543}, {"measurement": "CD40L positive", "setting": "T cells (CD4+ and CD8+); CD4+, DMSO", "result": 17, "unit": "%"}, {"measurement": "MFI", "setting": "T cells (CD4+ and CD8+); CD4+, DMSO", "result": 197}, {"measurement": "CD40L positive", "setting": "T cells (CD4+ and CD8+); CD8+, 1 uM Baz", "result": 42.3, "unit": "%"}, {"measurement": "MFI", "setting": "T cells (CD4+ and CD8+); CD8+, 1 uM Baz", "result": 339}, {"measurement": "CD40L positive", "setting": "T cells (CD4+ and CD8+); CD8+, DMSO", "result": 2.2, "unit": "%"}, {"measurement": "MFI", "setting": "T cells (CD4+ and CD8+); CD8+, DMSO", "result": 95.6}, {"measurement": "percentage of cells with high CD40L surface expression, ranking of constructs", "setting": "HEK293T cells", "result": "highest percentage of cells with high CD40L surface expression"}, {"measurement": "Percent of Jurkat cells expressing CD40L", "setting": "Jurkat cells; 1 μM Bazedoxifene", "result": 46, "unit": "%"}, {"measurement": "SR", "setting": "Jurkat cells; 1 μM Bazedoxifene versus DMSO, % CD40L positive Jurkat cells", "result": 15.3}, {"measurement": "Percent of Jurkat cells expressing CD40L", "setting": "Jurkat cells; DMSO", "result": 3, "unit": "%"}, {"measurement": "percentage of cells with high CD40L surface expression, ranking of constructs", "setting": "Jurkat cells; Jurkat cells, 1 μM Bazedoxifene 24 hours", "result": "highest percentage of cells with high CD40L surface expression"}, {"measurement": "CD40L expression (MFI)", "setting": "[1]; CD4+ cells, Day 4, Bazedoxifene 0.01 nM", "result": 415}, {"measurement": "CD40L expression (MFI)", "setting": "[1]; CD4+ cells, Day 4, Bazedoxifene 0.1 nM", "result": 499}, {"measurement": "CD40L expression (MFI)", "setting": "[1]; CD4+ cells, Day 4, Bazedoxifene 1 nM", "result": 545}, {"measurement": "CD40L expression (MFI)", "setting": "[1]; CD4+ cells, Day 4, Bazedoxifene 10 nM", "result": 616}, {"measurement": "CD40L expression (MFI)", "setting": "[1]; CD4+ cells, Day 4, Bazedoxifene 100 nM", "result": 1028}, {"measurement": "CD40L expression (MFI)", "setting": "[1]; CD4+ cells, Day 4, Bazedoxifene 1000 nM", "result": 1551}, {"measurement": "CD40L expression (MFI)", "setting": "[1]; CD4+ cells, Day 4, Bazedoxifene 10000 nM", "result": 1095}, {"measurement": "CD40L expression (MFI)", "setting": "[1]; CD4+ cells, Post Thaw, Bazedoxifene 0.01 nM", "result": 183}, {"measurement": "CD40L expression (MFI)", "setting": "[1]; CD4+ cells, Post Thaw, Bazedoxifene 0.1 nM", "result": 185}, {"measurement": "CD40L expression (MFI)", "setting": "[1]; CD4+ cells, Post Thaw, Bazedoxifene 1 nM", "result": 193}, {"measurement": "CD40L expression (MFI)", "setting": "[1]; CD4+ cells, Post Thaw, Bazedoxifene 10 nM", "result": 213}, {"measurement": "CD40L expression (MFI)", "setting": "[1]; CD4+ cells, Post Thaw, Bazedoxifene 100 nM", "result": 258}, {"measurement": "CD40L expression (MFI)", "setting": "[1]; CD4+ cells, Post Thaw, Bazedoxifene 1000 nM", "result": 292}, {"measurement": "CD40L expression (MFI)", "setting": "[1]; CD4+ cells, Post Thaw, Bazedoxifene 10000 nM", "result": 577}, {"measurement": "CD40L expression (MFI)", "setting": "[1]; CD4+ cells, Restim, Bazedoxifene 0.01 nM", "result": 340}, {"measurement": "CD40L expression (MFI)", "setting": "[1]; CD4+ cells, Restim, Bazedoxifene 0.1 nM", "result": 340}, {"measurement": "CD40L expression (MFI)", "setting": "[1]; CD4+ cells, Restim, Bazedoxifene 1 nM", "result": 364}, {"measurement": "CD40L expression (MFI)", "setting": "[1]; CD4+ cells, Restim, Bazedoxifene 10 nM", "result": 472}, {"measurement": "CD40L expression (MFI)", "setting": "[1]; CD4+ cells, Restim, Bazedoxifene 100 nM", "result": 561}, {"measurement": "CD40L expression (MFI)", "setting": "[1]; CD4+ cells, Restim, Bazedoxifene 1000 nM", "result": 741}, {"measurement": "CD40L expression (MFI)", "setting": "[1]; CD4+ cells, Restim, Bazedoxifene 10000 nM", "result": 447}, {"measurement": "CD40L expression (MFI)", "setting": "[1]; CD8+ cells, Day 4, Bazedoxifene 0.01 nM", "result": 168}, {"measurement": "CD40L expression (MFI)", "setting": "[1]; CD8+ cells, Day 4, Bazedoxifene 0.1 nM", "result": 176}, {"measurement": "CD40L expression (MFI)", "setting": "[1]; CD8+ cells, Day 4, Bazedoxifene 1 nM", "result": 190}, {"measurement": "CD40L expression (MFI)", "setting": "[1]; CD8+ cells, Day 4, Bazedoxifene 10 nM", "result": 212}, {"measurement": "CD40L expression (MFI)", "setting": "[1]; CD8+ cells, Day 4, Bazedoxifene 100 nM", "result": 442}, {"measurement": "CD40L expression (MFI)", "setting": "[1]; CD8+ cells, Day 4, Bazedoxifene 1000 nM", "result": 669}, {"measurement": "CD40L expression (MFI)", "setting": "[1]; CD8+ cells, Day 4, Bazedoxifene 10000 nM", "result": 438}, {"measurement": "CD40L expression (MFI)", "setting": "[1]; CD8+ cells, Post Thaw, Bazedoxifene 0.01 nM", "result": 113}, {"measurement": "CD40L expression (MFI)", "setting": "[1]; CD8+ cells, Post Thaw, Bazedoxifene 0.1 nM", "result": 117}, {"measurement": "CD40L expression (MFI)", "setting": "[1]; CD8+ cells, Post Thaw, Bazedoxifene 1 nM", "result": 121}, {"measurement": "CD40L expression (MFI)", "setting": "[1]; CD8+ cells, Post Thaw, Bazedoxifene 10 nM", "result": 148}, {"measurement": "CD40L expression (MFI)", "setting": "[1]; CD8+ cells, Post Thaw, Bazedoxifene 100 nM", "result": 204}, {"measurement": "CD40L expression (MFI)", "setting": "[1]; CD8+ cells, Post Thaw, Bazedoxifene 1000 nM", "result": 230}, {"measurement": "CD40L expression (MFI)", "setting": "[1]; CD8+ cells, Post Thaw, Bazedoxifene 10000 nM", "result": 375}, {"measurement": "CD40L expression (MFI)", "setting": "[1]; CD8+ cells, Restim, Bazedoxifene 0.01 nM", "result": 340}, {"measurement": "CD40L expression (MFI)", "setting": "[1]; CD8+ cells, Restim, Bazedoxifene 0.1 nM", "result": 340}, {"measurement": "CD40L expression (MFI)", "setting": "[1]; CD8+ cells, Restim, Bazedoxifene 1 nM", "result": 364}, {"measurement": "CD40L expression (MFI)", "setting": "[1]; CD8+ cells, Restim, Bazedoxifene 10 nM", "result": 472}, {"measurement": "CD40L expression (MFI)", "setting": "[1]; CD8+ cells, Restim, Bazedoxifene 100 nM", "result": 561}, {"measurement": "CD40L expression (MFI)", "setting": "[1]; CD8+ cells, Restim, Bazedoxifene 1000 nM", "result": 741}, {"measurement": "CD40L expression (MFI)", "setting": "[1]; CD8+ cells, Restim, Bazedoxifene 10000 nM", "result": 447}, {"measurement": "CD40L expression, ranking of constructs", "setting": "[1]; CD8 positive cells, freeze/thaw followed by restimulation with CD3/CD28 beads", "result": "highest ER regulated CD40L expression"}]}
